This is an account of results in paper PMC3724679, “Biochemical Characterization of a Polysialyltransferase from Mannheimia haemolytica A2 and Comparison to Other Bacterial Polysialyltransferases” (PLoS ONE, 2013).

The series has as its system CC(=O)N[C@H]1[C@H]([C@H](O)[C@H](O)CO)O[C@](OP(=O)(O)OC[C@H]2O[C@@H](n3ccc(N)nc3=O)[C@H](O)[C@@H]2O)(C(=O)O)C[C@@H]1O. Nature of the series: purified protein. Conditions: 0.5 mM GD3-FCHASE acceptor, 50 mM HEPES pH 7.5, 10 mM MgCl2, 30°C, CMP-Neu5Ac varied 0.25-20 mM.

As to “PSTMh (MalE-Δ20PSTMh) (Mannheimia haemolytica)”, the Km – broadly, the substrate concentration at which the rate is half of its maximum – amounted to 1100 ± 50 µM and the Vmax (as a rule, the top rate of the reaction or transport when substrate is in excess) came to 1520 µmol/min/mg.
